T1: B-cell maturation antigen (BCMA) (UniProt Q02223 1-184, limits assumed)
T1 sequence (looked up): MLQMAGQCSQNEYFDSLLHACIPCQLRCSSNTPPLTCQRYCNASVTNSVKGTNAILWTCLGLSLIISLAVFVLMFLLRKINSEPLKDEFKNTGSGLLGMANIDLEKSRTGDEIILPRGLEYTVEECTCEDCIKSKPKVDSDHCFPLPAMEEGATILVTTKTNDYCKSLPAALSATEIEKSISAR


Assays:
Experiment in all cases: cell-based or functional assay
human GPRC5D [1] = target: T2, human GPRC5D (human, UniProt Q9NZD1 1-345)
human GPRC5D [2] = target: T2, human GPRC5D; remark: listed apart in the source
[3] = target: T1, B-cell maturation antigen (BCMA)
human GPRC5D [4] = target: T2, human GPRC5D; remark: listed apart in the source

T2 sequence (Q9NZD1 whole entry): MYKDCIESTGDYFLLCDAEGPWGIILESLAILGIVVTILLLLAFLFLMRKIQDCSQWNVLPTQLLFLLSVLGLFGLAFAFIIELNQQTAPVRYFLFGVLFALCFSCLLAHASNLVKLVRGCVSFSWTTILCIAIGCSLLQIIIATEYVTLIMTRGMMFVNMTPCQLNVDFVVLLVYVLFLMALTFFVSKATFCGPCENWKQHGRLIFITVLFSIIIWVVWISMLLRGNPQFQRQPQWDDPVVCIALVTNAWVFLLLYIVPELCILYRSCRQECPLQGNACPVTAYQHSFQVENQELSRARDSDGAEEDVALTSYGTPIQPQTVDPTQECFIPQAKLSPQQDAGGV

| Binder | EC50 of in vitro killing, AMO-1 cells (human GPRC5D [1]) | EC50 of in vitro killing, EJM cells (human GPRC5D [1]) | EC50 of in vitro killing, L363 cells (human GPRC5D [1]) | EC50 of in vitro killing, MOLP-2 cells (human GPRC5D [1]) | EC50 of in vitro killing, NCI-H929 cells (human GPRC5D [1]) | EC50 of in vitro killing, OPM-2 cells (human GPRC5D [1]) | EC50 of in vitro killing, RPMI cells (human GPRC5D [1]) | EC50 of T cell cytotoxicity (LDH release) on AMO-1 cells (human GPRC5D [2]) | EC50 of T cell cytotoxicity (LDH release) on L363 cells (human GPRC5D [2]) | EC50 of T cell cytotoxicity (LDH release) on NCI-H929 cells (human GPRC5D [2]) | EC50 of T cell cytotoxicity (LDH release) on RPMI-8226 cells (human GPRC5D [2]) | CAR-J2 EC50 (PGLALA-CAR-J activation, L363 target cells) (human GPRC5D [4]) | also measured |
| --- | --- | --- | --- | --- | --- | --- | --- | --- | --- | --- | --- | --- | --- |
| 5E11-TCB (bispecific antibody, human IgG1, kappa, L234A L235A) light 1: DIVLTQSPALAVSPGQRATISCRASQSVSISGINLMNWYQQKPGQQPKLLIYHASILASGIPTRFSGSGSGTDFTLTIDPVQADDIATYYCQQTRESPLTFGSGTNLEIKRTVAAPSVFIFPPSDRKLKSGTASVVCLLNNFYPREAKVQWKVDNALQSGNSQESVTEQDSKDSTYSLSSTLTLSKADYEKHKVYACEVTHQGLSSPVTKSFNRGEC light 2: EVQLLESGGGLVQPGGSLRLSCAASGFTFSTYAMNWVRQAPGKGLEWVSRIRSKYNNYATYYADSVKGRFTISRDDSKNTLYLQMNSLRAEDTAVYYCVRHGNFGNSYVSWFAYWGQGTLVTVSSASVAAPSVFIFPPSDEQLKSGTASVVCLLNNFYPREAKVQWKVDNALQSGNSQESVTEQDSKDSTYSLSSTLTLSKADYEKHKVYACEVTHQGLSSPVTKSFNRGEC heavy 1: ELQLEQSGGGLVQPGGSLTLSCAASGFTFSKYAMAWVRQAPTKGLEWVASISTGGVNTYYRDSVKARFTISRDNAKNTQYLQMDSLRSEDTATYYCATHTGDYFDYWGQGVMVTVSSASTKGPSVFPLAPSSKSTSGGTAALGCLVEDYFPEPVTVSWNSGALTSGVHTFPAVLQSSGLYSLSSVVTVPSSSLGTQTYICNVNHKPSNTKVDEKVEPKSCDKTHTCPPCPAPEAAGGPSVFLFPPKPKDTLMISRTPEVTCVVVDVSHEDPEVKFNWYVDGVEVHNAKTKPREEQYNSTYRVVSVLTVLHQDWLNGKEYKCKVSNKALGAPIEKTISKAKGQPREPQVCTLPPSRDELTKNQVSLSCAVKGFYPSDIAVEWESNGQPENNYKTTPPVLDSDGSFFLVSKLTVDKSRWQQGNVFSCSVMHEALHNHYTQKSLSLSPGK heavy 2: not shown | 0.008 nM | 0.011 nM | 0.017 nM | 0.018 nM | 0.007 nM | 0.002 nM | 0.064 nM | 0.014 nM | 0.012 nM | 0.007 nM | 0.024 nM |  |  |
| ET150-5-TCB (bispecific antibody, human IgG1, lambda, L234A L235A) light 1: QSVLTQPPSASGTPGQRVTISCSGSRSNVGGNYVFWYQQVPGATPKLLIYRSNQRPSGVPDRFAGSKSGSSASLAISGLRSEDEADYYCATWDDSLSGFVFGTGTKVTVLGQPKAAPSVTLFPPSSKKLQANKATLVCLISDFYPGAVTVAWKADSSPVKAGVETTTPSKQSNNKYAASSYLSLTPEQWKSHRSYSCQVTHEGSTVEKTVAPTECS light 2: EVQLLESGGGLVQPGGSLRLSCAASGFTFSTYAMNWVRQAPGKGLEWVSRIRSKYNNYATYYADSVKGRFTISRDDSKNTLYLQMNSLRAEDTAVYYCVRHGNFGNSYVSWFAYWGQGTLVTVSSASVAAPSVFIFPPSDEQLKSGTASVVCLLNNFYPREAKVQWKVDNALQSGNSQESVTEQDSKDSTYSLSSTLTLSKADYEKHKVYACEVTHQGLSSPVTKSFNRGEC heavy 1: EVQLVESGGGLVKPGGSLRLSCAASGFTFSDYYMSWIRQAPGKGLEWVSYISSSGSTIYYADSVKGRFTISRDNAKNSLYLQMNSLRAEDTAVYYCARGYGKAYDQWGQGTLVTVSSASTKGPSVFPLAPSSKSTSGGTAALGCLVEDYFPEPVTVSWNSGALTSGVHTFPAVLQSSGLYSLSSVVTVPSSSLGTQTYICNVNHKPSNTKVDEKVEPKSCDKTHTCPPCPAPEAAGGPSVFLFPPKPKDTLMISRTPEVTCVVVDVSHEDPEVKFNWYVDGVEVHNAKTKPREEQYNSTYRVVSVLTVLHQDWLNGKEYKCKVSNKALGAPIEKTISKAKGQPREPQVCTLPPSRDELTKNQVSLSCAVKGFYPSDIAVEWESNGQPENNYKTTPPVLDSDGSFFLVSKLTVDKSRWQQGNVFSCSVMHEALHNHYTQKSLSLSPGK heavy 2: not shown |  |  |  |  |  |  |  | 0.0835 nM | 0.768 nM | 0.833 nM | 0.797 nM |  |  |
| 5F11-TCB (bispecific antibody, human IgG1, kappa, L234A L235A) light 1: DIVMTQAPLSVSVTPGESASISCRSSKSLLHSNGITYVYWYFQKPGKSPQVLIYRMSNLASGVPDRFSGSGSETDFTLKISRVEAEDVGIYHCGQLLENPYTFGAGTELELKRTVAAPSVFIFPPSDRKLKSGTASVVCLLNNFYPREAKVQWKVDNALQSGNSQESVTEQDSKDSTYSLSSTLTLSKADYEKHKVYACEVTHQGLSSPVTKSFNRGEC light 2: EVQLLESGGGLVQPGGSLRLSCAASGFTFSTYAMNWVRQAPGKGLEWVSRIRSKYNNYATYYADSVKGRFTISRDDSKNTLYLQMNSLRAEDTAVYYCVRHGNFGNSYVSWFAYWGQGTLVTVSSASVAAPSVFIFPPSDEQLKSGTASVVCLLNNFYPREAKVQWKVDNALQSGNSQESVTEQDSKDSTYSLSSTLTLSKADYEKHKVYACEVTHQGLSSPVTKSFNRGEC heavy 1: EVQLVESGGGLVQPGRSLKLSCAASGFSFSNYGMAWVRQAATKGLEWVASISTGGGNTYYRDSVKGRFIVSRDNAKNTQYLQMDSLRSEDTATYYCTRHDRGGLYWGQGVMVTVSSASTKGPSVFPLAPSSKSTSGGTAALGCLVEDYFPEPVTVSWNSGALTSGVHTFPAVLQSSGLYSLSSVVTVPSSSLGTQTYICNVNHKPSNTKVDEKVEPKSCDKTHTCPPCPAPEAAGGPSVFLFPPKPKDTLMISRTPEVTCVVVDVSHEDPEVKFNWYVDGVEVHNAKTKPREEQYNSTYRVVSVLTVLHQDWLNGKEYKCKVSNKALGAPIEKTISKAKGQPREPQVCTLPPSRDELTKNQVSLSCAVKGFYPSDIAVEWESNGQPENNYKTTPPVLDSDGSFFLVSKLTVDKSRWQQGNVFSCSVMHEALHNHYTQKSLSLSPGK heavy 2: not shown | 0.006 nM | 0.003 nM | 0.003 nM | 0.001 nM | 0.004 nM | 0.001 nM | 0.006 nM | 0.003 nM | 0.001 nM | 0.001 nM | 0.002 nM |  |  |
| BCMA-TCB (bispecific antibody, human IgG1, kappa, L234A L235A) heavy 1: EVQLLESGGGLVQPGGSLRLSCAASGFTFSSYAMNWVRQAPGKGLEWVSAITASGGSTYYADSVKGRFTISRDNSKNTLYLQMNSLRAEDTAVYYCARYWPMSLWGQGTLVTVSSASTKGPSVFPLAPSSKSTSGGTAALGCLVEDYFPEPVTVSWNSGALTSGVHTFPAVLQSSGLYSLSSVVTVPSSSLGTQTYICNVNHKPSNTKVDEKVEPKSCDKTHTCPPCPAPEAAGGPSVFLFPPKPKDTLMISRTPEVTCVVVDVSHEDPEVKFNWYVDGVEVHNAKTKPREEQYNSTYRVVSVLTVLHQDWLNGKEYKCKVSNKALGAPIEKTISKAKGQPREPQVCTLPPSRDELTKNQVSLSCAVKGFYPSDIAVEWESNGQPENNYKTTPPVLDSDGSFFLVSKLTVDKSRWQQGNVFSCSVMHEALHNHYTQKSLSLSPGK light 1: EIVLTQSPGTLSLSPGERATLSCRASQSVSAYYLAWYQQKPGQAPRLLMYDASIRATGIPDRFSGSGSGTDFTLTISRLEPEDFAVYYCQQYERWPLTFGQGTKVEIKRTVAAPSVFIFPPSDRKLKSGTASVVCLLNNFYPREAKVQWKVDNALQSGNSQESVTEQDSKDSTYSLSSTLTLSKADYEKHKVYACEVTHQGLSSPVTKSFNRGEC heavy 2: not shown light 2: EVQLLESGGGLVQPGGSLRLSCAASGFTFSTYAMNWVRQAPGKGLEWVSRIRSKYNNYATYYADSVKGRFTISRDDSKNTLYLQMNSLRAEDTAVYYCVRHGNFGNSYVSWFAYWGQGTLVTVSSASVAAPSVFIFPPSDEQLKSGTASVVCLLNNFYPREAKVQWKVDNALQSGNSQESVTEQDSKDSTYSLSSTLTLSKADYEKHKVYACEVTHQGLSSPVTKSFNRGEC |  |  |  |  |  |  |  |  |  |  |  |  | EC50 of in vitro killing, AMO-1 cells [3]: 0.518 nM; EC50 of in vitro killing, EJM cells [3]: 0.132 nM; EC50 of in vitro killing, L363 cells [3]: 0.127 nM; EC50 of in vitro killing, MOLP-2 cells [3]: 0.032 nM; EC50 of in vitro killing, NCI-H929 cells [3]: 0.311 nM; EC50 of in vitro killing, OPM-2 cells [3]: 0.033 nM; EC50 of in vitro killing, RPMI cells [3]: 0.011 nM |
| P1AE5730 (antibody, V domains shown) VH: ELQLLESGGGLVQPGGSLRLSCAASGFTFSKYAMAWVRQAPGKGLEWVASISTGGVNTYYADSVKGRFTISRDNAKNTLYLQMNSLRAEDTAVYYCATHTGDYFDYWGQGTMVTVSS VL: DIQMTQSPSSLSASVGDRVTITCRASQSVSISGINLMNWYQQKPGKQPKLLIYHASILASGVPSRFSGSGSGTDFTLTISSLQPEDFATYYCQQTRESPLTFGQGTRLEIK |  |  |  |  |  |  |  |  |  |  |  | 3.5 ng/mL |  |
| P1AE5731 (antibody, V domains shown) VH: ELQLLESGGGLVQPGGSLRLSCAASGFTFSKYAMAWVRQAPGKGLEWVASISTGGVNTYYADSVKGRFTISRDNAKNTLYLQMNSLRAEDTAVYYCATHTGDYFDYWGQGTMVTVSS VL: DIQMTQSPSSLSASVGDRVTITCRASQSVSISGINLMNWYQQKPGQQPKLLIYHASILASGVPSRFSGSGSGTDFTLTISSLQPEDFATYYCQQTRESPLTFGQGTRLEIK |  |  |  |  |  |  |  |  |  |  |  | 2.3 ng/mL |  |
